The source of these data is US20240392271, “ENGINEERED CASX REPRESSOR SYSTEMS” (Scribe Therapeutics Inc., published 2024).

One data set deals with T1, ELXR2-ZIM3 (#2.A) (synthetic construct).
T1 chain: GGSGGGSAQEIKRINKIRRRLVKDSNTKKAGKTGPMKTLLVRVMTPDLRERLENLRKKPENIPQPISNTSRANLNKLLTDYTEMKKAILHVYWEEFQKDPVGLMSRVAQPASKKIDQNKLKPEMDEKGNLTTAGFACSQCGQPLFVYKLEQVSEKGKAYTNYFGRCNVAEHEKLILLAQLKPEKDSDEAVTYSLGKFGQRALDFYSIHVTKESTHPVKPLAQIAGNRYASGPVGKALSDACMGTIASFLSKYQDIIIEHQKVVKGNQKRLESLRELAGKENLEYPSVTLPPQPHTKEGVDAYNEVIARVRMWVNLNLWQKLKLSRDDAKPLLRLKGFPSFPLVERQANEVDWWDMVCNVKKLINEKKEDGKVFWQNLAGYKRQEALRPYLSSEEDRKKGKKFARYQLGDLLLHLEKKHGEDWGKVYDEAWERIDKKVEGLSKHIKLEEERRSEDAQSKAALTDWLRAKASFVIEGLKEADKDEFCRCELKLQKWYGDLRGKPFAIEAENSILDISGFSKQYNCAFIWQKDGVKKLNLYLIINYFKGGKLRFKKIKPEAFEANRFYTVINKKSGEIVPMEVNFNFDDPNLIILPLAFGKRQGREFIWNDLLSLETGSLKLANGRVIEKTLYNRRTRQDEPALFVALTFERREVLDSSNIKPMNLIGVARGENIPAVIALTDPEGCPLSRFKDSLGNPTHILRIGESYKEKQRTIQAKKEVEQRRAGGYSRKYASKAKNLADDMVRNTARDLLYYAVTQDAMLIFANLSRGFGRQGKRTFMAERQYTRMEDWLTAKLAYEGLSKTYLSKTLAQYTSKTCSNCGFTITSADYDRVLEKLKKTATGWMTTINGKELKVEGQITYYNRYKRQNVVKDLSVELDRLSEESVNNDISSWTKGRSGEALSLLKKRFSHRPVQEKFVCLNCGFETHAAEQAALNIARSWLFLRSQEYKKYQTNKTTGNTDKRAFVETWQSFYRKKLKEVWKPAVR
Briefly: cell_activity; PAM TTC; day 50. The settings on record: tags: DNMT3A CD, DNMT3L ID, ZIM3 KRAB fusion, NLS.

For another data set, the target named is ELXR5-ZNF10 (#5.B) (synthetic construct). As to the kind of experiment: cell_activity; PAM TTC; day 73. The settings on record: tags: DNMT3A CD, DNMT3L ID, ZNF10 KRAB fusion, NLS.
Chain of ELXR5-ZNF10 (#5.B) (synthetic construct) (chain, as listed by the source): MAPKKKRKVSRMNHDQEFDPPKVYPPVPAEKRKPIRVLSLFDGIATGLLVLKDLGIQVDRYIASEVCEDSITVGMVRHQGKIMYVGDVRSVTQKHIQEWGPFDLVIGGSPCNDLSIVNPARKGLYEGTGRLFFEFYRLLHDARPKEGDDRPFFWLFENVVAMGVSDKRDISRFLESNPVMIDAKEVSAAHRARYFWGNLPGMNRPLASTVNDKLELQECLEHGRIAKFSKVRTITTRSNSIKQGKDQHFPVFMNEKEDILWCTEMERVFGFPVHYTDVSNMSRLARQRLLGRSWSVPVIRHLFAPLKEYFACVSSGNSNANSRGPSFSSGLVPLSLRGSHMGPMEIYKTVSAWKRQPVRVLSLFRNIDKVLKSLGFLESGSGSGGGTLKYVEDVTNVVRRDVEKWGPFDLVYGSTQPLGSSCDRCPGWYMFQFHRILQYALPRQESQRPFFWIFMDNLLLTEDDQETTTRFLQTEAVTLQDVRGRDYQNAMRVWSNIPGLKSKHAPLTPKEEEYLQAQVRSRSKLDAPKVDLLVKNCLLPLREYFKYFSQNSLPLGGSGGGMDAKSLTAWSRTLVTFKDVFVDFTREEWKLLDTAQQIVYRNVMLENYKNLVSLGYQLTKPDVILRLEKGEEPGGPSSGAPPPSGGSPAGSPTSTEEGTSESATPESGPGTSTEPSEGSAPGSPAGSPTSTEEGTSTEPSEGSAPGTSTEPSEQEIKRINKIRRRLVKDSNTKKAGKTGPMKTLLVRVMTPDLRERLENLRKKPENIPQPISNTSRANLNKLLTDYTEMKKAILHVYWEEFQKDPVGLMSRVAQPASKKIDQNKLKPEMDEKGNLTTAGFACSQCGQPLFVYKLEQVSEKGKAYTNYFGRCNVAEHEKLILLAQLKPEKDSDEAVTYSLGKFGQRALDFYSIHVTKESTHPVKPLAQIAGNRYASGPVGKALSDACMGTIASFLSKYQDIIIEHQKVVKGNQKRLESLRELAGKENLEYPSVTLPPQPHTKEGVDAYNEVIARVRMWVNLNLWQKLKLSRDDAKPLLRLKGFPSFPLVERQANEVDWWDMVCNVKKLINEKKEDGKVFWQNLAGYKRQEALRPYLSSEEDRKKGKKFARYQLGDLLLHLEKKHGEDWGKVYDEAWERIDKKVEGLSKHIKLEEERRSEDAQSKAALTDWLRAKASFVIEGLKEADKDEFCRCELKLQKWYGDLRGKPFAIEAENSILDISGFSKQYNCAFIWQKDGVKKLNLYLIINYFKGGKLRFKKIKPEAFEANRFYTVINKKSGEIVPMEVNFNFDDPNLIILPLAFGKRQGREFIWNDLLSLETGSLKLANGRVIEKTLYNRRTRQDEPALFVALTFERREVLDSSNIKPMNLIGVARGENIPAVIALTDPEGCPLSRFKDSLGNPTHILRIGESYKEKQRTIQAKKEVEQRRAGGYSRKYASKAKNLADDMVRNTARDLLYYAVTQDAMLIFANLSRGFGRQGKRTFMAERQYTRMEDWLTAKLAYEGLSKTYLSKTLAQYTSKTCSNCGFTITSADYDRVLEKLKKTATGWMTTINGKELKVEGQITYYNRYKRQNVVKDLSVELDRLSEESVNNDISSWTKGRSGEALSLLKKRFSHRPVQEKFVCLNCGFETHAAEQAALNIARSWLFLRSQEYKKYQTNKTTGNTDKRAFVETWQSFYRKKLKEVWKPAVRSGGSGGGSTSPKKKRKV
The target of another data set is ELXR5-ZIM3 (#5.A) (synthetic construct). Briefly: cell_activity; PAM TTC; day 73. The settings on record: tags: DNMT3A CD, DNMT3L ID, ZIM3 KRAB fusion, NLS.
Chain of ELXR5-ZIM3 (#5.A) (synthetic construct) (chain, as listed by the source): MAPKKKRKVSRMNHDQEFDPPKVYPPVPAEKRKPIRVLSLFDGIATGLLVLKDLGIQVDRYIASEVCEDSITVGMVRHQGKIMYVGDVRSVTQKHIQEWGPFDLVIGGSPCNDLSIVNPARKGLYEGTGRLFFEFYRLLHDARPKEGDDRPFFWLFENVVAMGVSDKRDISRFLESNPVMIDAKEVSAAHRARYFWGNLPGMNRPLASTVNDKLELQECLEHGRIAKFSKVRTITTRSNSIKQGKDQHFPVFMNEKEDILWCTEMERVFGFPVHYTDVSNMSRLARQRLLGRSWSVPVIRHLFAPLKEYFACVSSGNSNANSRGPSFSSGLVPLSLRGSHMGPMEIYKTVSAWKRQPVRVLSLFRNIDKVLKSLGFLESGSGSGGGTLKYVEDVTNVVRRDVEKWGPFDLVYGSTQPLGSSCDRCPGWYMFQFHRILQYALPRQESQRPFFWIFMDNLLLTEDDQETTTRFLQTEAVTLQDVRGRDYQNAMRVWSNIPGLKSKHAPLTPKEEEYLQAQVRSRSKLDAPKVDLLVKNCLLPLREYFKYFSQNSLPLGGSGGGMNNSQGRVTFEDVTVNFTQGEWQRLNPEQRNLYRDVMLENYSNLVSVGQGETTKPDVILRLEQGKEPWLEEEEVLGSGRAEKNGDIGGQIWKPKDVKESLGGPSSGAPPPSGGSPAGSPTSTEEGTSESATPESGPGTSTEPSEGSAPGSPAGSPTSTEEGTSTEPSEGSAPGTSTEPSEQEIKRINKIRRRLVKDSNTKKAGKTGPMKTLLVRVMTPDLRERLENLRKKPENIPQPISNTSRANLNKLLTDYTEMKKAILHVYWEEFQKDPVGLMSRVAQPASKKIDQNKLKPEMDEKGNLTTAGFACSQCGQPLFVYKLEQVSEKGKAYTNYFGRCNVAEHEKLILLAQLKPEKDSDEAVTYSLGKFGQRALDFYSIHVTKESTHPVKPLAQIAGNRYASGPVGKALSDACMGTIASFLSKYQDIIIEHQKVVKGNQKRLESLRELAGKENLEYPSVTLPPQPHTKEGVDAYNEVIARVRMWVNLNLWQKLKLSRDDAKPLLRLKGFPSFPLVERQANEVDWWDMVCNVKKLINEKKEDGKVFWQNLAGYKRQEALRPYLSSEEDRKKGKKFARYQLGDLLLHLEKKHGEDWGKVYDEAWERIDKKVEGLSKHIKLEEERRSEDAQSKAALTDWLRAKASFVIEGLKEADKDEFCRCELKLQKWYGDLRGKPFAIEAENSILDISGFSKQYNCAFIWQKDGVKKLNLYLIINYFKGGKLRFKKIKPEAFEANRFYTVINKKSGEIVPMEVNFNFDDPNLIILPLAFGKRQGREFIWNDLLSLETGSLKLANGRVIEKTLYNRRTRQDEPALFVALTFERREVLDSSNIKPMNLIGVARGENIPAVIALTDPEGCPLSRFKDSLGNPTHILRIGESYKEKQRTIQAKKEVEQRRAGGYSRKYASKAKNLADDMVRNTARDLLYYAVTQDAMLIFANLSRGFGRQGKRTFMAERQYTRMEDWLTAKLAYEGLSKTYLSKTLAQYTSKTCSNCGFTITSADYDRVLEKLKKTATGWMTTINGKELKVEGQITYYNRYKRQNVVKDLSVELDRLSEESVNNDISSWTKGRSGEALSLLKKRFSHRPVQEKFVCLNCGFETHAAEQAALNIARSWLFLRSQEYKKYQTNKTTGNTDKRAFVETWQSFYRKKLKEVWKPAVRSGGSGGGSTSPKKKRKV
For a further data set, the target named is T2, ELXR4-ZIM3 (#4.A) (synthetic construct).
T2 chain: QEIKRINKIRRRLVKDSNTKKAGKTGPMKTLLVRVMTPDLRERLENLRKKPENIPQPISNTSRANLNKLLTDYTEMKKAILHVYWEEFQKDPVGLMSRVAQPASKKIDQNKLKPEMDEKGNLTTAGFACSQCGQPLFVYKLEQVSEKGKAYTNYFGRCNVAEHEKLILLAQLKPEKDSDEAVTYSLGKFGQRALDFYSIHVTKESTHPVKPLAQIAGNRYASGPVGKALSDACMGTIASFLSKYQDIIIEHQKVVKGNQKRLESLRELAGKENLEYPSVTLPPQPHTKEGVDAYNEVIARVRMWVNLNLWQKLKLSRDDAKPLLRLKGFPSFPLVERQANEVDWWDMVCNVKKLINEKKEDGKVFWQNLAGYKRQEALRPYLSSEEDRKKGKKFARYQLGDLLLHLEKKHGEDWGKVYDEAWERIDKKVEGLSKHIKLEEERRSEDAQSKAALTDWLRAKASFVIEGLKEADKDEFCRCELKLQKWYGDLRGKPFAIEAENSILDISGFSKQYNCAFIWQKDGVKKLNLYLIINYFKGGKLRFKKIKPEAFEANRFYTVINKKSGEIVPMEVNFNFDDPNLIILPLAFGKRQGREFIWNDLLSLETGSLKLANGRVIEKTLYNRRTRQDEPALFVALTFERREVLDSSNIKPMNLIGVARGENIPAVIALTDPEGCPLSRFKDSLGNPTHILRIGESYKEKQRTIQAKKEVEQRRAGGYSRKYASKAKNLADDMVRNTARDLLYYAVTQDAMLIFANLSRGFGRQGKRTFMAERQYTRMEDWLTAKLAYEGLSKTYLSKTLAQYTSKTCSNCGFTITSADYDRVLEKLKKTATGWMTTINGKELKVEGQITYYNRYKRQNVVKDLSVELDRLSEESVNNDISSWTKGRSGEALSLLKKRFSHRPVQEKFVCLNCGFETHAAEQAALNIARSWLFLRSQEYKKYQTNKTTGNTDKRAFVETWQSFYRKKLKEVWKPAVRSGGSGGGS
Briefly: cell_activity; PAM TTC; day 73. The settings on record: tags: DNMT3A CD, DNMT3L ID, ZIM3 KRAB fusion, NLS.

A further data set has as its target T3, ELXR4-ZNF10 (#4.B) (synthetic construct).
T3 chain: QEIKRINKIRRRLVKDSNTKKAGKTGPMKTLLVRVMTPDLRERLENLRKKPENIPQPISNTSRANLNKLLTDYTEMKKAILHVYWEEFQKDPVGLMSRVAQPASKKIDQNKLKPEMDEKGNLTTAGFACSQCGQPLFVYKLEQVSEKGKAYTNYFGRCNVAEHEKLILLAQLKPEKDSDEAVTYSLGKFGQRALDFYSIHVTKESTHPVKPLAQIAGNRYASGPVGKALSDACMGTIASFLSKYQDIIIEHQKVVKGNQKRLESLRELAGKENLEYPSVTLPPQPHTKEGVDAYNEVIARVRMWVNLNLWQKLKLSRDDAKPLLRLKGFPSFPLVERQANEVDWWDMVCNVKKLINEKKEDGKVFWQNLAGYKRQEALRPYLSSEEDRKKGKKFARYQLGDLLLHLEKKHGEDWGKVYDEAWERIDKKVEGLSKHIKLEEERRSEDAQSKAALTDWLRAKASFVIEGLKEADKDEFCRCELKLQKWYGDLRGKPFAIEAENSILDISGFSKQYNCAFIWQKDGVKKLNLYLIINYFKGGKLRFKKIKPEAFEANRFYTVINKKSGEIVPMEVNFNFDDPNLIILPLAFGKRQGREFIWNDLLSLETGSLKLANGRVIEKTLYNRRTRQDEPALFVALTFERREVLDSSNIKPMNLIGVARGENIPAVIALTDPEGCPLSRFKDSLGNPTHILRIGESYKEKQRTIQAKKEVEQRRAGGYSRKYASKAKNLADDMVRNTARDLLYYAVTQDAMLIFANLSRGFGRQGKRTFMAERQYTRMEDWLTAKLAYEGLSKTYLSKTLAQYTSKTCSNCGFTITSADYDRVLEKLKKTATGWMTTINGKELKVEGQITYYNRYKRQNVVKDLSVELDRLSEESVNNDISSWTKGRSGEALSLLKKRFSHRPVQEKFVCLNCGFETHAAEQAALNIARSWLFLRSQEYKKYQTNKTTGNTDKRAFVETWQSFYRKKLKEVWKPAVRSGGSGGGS
Briefly: cell_activity; PAM TTC; day 73. As to conditions: tags: DNMT3A CD, DNMT3L ID, ZNF10 KRAB fusion, NLS.

B1: gRNA scaffold 174 + spacer 7.37 ; B2M target 7.37 (ssRNA ; dsDNA)
RNA: ACUGGCGCUUUUAUCUGAUUACUUUGAGAGCCAUCACCAGCGACUAUGUCGUAGUGGGUAAAGCUCCCUCUUCGGAGGGAGCAUCAAAGGGCCGAGAUGUCUCGCUCCG
DNA 1: GGCCGAGATGTCTCGCTCCG
DNA 2: CGGAGCGAGACATCTCGGCC
Turning to B1, the activity stood at 58.8 % HLA-negative cells with ELXR2-ZIM3 (#2.A); 60.8 % HLA-negative cells with ELXR5-ZNF10 (#5.B); 74.9 % HLA-negative cells with ELXR5-ZIM3 (#5.A); 69 % HLA-negative cells with ELXR4-ZIM3 (#4.A); 55.2 % HLA-negative cells in the data set with ELXR4-ZNF10 (#4.B).
